In PMC9644274:

B1: mRFP-RTN3 (natural protein)
chain: MAEEHKHEESIMEKISEKIHGHDDSSSSSSDSDDDKNSASLKTKIYRLFGREQPLHKLFGGGKPADIFLWRNKKVSGGVLGAATVSWILFELLEYNLLTLFGHISILALAVLFLWSSASTFIHKSPLHIPEVHIPEDVVLQLASGLRIEINRGFTVLRDIASGRDLKKFLLVIAGLWVLSKVGSSCNFLTLIYIATVLLFTIPVLYEKYEDKVDDFGEKAMREIKKQYVEFDVKVLSKVMSKIPKGAFAFIKKKD
B2: mRFP-RTN6 (natural protein)
chain: MAEELEKSMHKEESLMEKIADKIHDHDSSSSSDSEHEKPESPSALKAKIYRLFGREKPVHKVLGGGLPADVFLWRDKKLSASVLGVATAIWVLFELVEYHFLSLVCHILIFALAALFLLSNAHAFMNKTPPKIPEIHIKEEHFLMIVSALRNELNQAFVILRSIALGRDLKKFLMVVFGLWIISVVGNWFNFLTLVYICFVVLHTVPMLYEKHEDKVDPVAEKTLKELKKHYMVFDEKVLSKLPVASLKAKLG
B3: mRFP-RTN6, Q6DBN4 1-253 (natural protein)
chain: B2 chain

Experiments:
Experiment in all cases: FRET or BRET; FRET-FLIM in tobacco leaf epidermal cells, transient expression; GFP fusion as donor, mRFP fusion as acceptor; a reduction of the donor's lifetime of 0.2 ns or more is taken as energy transfer
[1] = molecular target: TMV-30k-GFP (tobacco mosaic virus)
[2] = molecular target: CMV-3a-GFP (cauliflower mosaic virus in p-0009; cucumber mosaic virus in p-0012)
[3] = molecular target: GFP-PMTV-TGB2 (potato mop-top virus)
[4] = molecular target: GFP-PVX-TGB2 (potato virus X)
[5] = molecular target: T1, GFP-RTN3 (Arabidopsis thaliana), Q9SH59; conditions: remark: other sources report otherwise
T1 chain: B1 chain

| Binder | average GFP fluorescence lifetime of the donor with the acceptor [1] [ns] | reduction of the GFP lifetime against the donor alone (Δ) [1] [ns] | average GFP fluorescence lifetime of the donor with the acceptor [2] [ns] | reduction of the GFP lifetime against the donor alone (Δ) [2] [ns] | average GFP fluorescence lifetime of the donor with the acceptor [3] [ns] | reduction of the GFP lifetime against the donor alone (Δ) [3] [ns] | average GFP fluorescence lifetime of the donor with the acceptor [4] [ns] | reduction of the GFP lifetime against the donor alone (Δ) [4] [ns] | average GFP fluorescence lifetime of the donor with the acceptor [5] [ns] | reduction of the GFP lifetime against the donor alone (Δ) [5] [ns] |
| --- | --- | --- | --- | --- | --- | --- | --- | --- | --- | --- |
| B1 | 2.09 | 0.31 | 2.05 | 0.32 | 2.12 | 0.29 | 2.07 | 0.32 |  |  |
| B2 | 2.08 | 0.32 | 2.04 | 0.33 | 2.19 | 0.22 | 2.08 | 0.31 |  |  |
| B3 |  |  |  |  |  |  |  |  | 2.2 | 0.22 |
